Paper PMC8227779

Target: ZZ-CBM3 (Staphylococcus aureus)
Assay: pull-down; ZZ-CBM3 pre-anchored on discs of cellulose hydrogel (8Cell, 14Cell, 18Cell; 5 mm, 30 mg); 100 uL of IgG (0.312-10.0 uM) in TST buffer incubated 18 h at 37 °C; free IgG in the supernatant by absorbance at 280 nm (NanoDrop), bound IgG by mass balance; triplicates

What does the source list for “Human normal immunoglobulin (IgG) (antibody)”?
grafting yield relative to the initial amount contacted with the modified hydrogels: 26 to 89%; stoichiometry N (mol IgG per mol ZZ-CBM3): 1
